Paper PMC9482650, “Quantitative fragmentomics allow affinity mapping of interactomes” (Nature Communications, 2022)
Positions count from the first letter of the chain named.

Key:
Assay in all cases: holdup assay
Set-up in all cases: key: below the threshold = too weak to quantify, mostly under pKd 3.1 to 4
DLG1_2, Q12959 = target: DLG1_2, Q12959
DLG2_3, Q15700 = target: DLG2_3, Q15700
GRIP2_7, Q9C0E4 = target: GRIP2_7, Q9C0E4
LNX1_2, Q8TBB1 = target: LNX1_2, Q8TBB1
ARHGEF11, O15085 = target: T1, ARHGEF11, O15085
T1 sequence (O15085 42-136, limits assumed, looked up): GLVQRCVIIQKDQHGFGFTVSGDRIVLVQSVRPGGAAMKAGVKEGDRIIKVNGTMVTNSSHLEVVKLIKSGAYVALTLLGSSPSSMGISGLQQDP

GRASP, Q7Z6J2 = target: GRASP, Q7Z6J2
LIN7A, O14910 = target: T2, LIN7A, O14910
T2 sequence (O14910 103-200, limits assumed, looked up): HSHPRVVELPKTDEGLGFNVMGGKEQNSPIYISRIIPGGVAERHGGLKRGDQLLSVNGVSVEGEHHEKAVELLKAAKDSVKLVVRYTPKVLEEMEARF

LIN7C, Q9NUP9 = target: T3, LIN7C, Q9NUP9
T3 sequence (Q9NUP9 88-185, limits assumed, looked up): T2 sequence (O14910 103-200, limits assumed, looked up) with D13E, V20I, V40I, E42D, K77Q, D78G, S79K, A96S

APBA1_2, Q02410 = target: T4, APBA1_2, Q02410
T4 sequence (Q02410 742-832, limits assumed, looked up): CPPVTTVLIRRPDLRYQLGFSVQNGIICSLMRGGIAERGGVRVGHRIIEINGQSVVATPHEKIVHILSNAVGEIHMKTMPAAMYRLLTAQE

DLG3_1, Q92796 = target: T5, DLG3_1, Q92796
T5 sequence (Q92796 125-227, limits assumed, looked up): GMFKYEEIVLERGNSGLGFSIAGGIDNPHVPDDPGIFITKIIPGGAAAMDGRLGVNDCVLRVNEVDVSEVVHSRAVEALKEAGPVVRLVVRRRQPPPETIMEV

SNTG2, Q9NY99 = target: T6, SNTG2, Q9NY99
T6 sequence (Q9NY99 68-166, limits assumed, looked up): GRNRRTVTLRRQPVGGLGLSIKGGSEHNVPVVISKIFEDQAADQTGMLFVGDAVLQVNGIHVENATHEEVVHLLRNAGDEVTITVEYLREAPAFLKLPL

HTRA2, O43464 = target: HTRA2, O43464
LNX1_1, Q8TBB1 = target: LNX1_1, Q8TBB1
LIMK2, P53671 = target: LIMK2, P53671
Inadl_9, Q8NI35 = target: Inadl_9, Q8NI35
PCLO, Q9Y6V0 = target: T7, PCLO, Q9Y6V0
T7 sequence (Q9Y6V0 4491-4600, limits assumed, looked up): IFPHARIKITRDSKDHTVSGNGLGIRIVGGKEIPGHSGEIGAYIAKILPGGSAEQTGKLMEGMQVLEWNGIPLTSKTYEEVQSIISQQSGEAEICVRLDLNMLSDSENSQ

MAGI2_6, Q86UL8 = target: MAGI2_6, Q86UL8
APBA2_1, Q99767 = target: T8, APBA2_1, Q99767
T8 sequence (Q99767 563-664, limits assumed, looked up): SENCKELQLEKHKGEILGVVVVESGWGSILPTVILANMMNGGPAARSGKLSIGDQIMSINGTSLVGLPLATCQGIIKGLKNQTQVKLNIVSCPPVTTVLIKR

RAPGEF6, Q8TEU7 = target: T9, RAPGEF6, Q8TEU7
T9 sequence (Q8TEU7 525-625, limits assumed, looked up): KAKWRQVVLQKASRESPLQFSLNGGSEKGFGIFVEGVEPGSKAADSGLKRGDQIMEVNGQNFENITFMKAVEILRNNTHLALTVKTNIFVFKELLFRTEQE

FRMPD3, Q5JV73 = target: FRMPD3, Q5JV73
TX1BP3, O14907 = target: T10, TX1BP3, O14907
T10 sequence (O14907 10-122, limits assumed, looked up): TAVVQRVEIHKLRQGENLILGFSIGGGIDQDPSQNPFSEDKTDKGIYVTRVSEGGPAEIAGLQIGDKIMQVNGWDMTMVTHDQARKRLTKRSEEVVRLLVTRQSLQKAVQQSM

MAGI3_2, Q5TCQ9 = target: MAGI3_2, Q5TCQ9
FRMPD2_3, Q68DX3 = target: FRMPD2_3, Q68DX3
AHNAK1, Q09666 = target: AHNAK1, Q09666
DLG5_1, Q8TDM6 = target: DLG5_1, Q8TDM6
PARD3B_1, Q8TEW8 = target: T11, PARD3B_1, Q8TEW8
T11 sequence (Q8TEW8 196-299, limits assumed, looked up): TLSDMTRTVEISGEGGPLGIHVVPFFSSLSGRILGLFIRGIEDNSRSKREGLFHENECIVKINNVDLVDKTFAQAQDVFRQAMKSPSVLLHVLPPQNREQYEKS

Inadl_10, Q8NI35 = target: Inadl_10, Q8NI35
[1] = plain residues with an end cap or a label only (N-terminal biotin on a linker: ado-ado)
[2] = modified: phospho on T at position -2 from the C-terminal residue

Chain of Inadl_10, Q8NI35 (Q8NI35 1673-1763): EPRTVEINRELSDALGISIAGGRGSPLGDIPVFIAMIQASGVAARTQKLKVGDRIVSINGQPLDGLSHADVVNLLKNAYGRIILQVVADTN
Chain of FRMPD2_3, Q68DX3 (Q68DX3 1073-1166): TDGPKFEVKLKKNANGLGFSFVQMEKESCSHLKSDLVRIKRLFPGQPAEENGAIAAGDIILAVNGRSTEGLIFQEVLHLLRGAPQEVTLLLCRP
Chain of LNX1_1, Q8TBB1 (Q8TBB1 261-371): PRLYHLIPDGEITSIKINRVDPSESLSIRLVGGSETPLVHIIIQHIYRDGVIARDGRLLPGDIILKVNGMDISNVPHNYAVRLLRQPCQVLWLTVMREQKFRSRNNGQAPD
Chain of GRIP2_7, Q9C0E4 (Q9C0E4 934-1023): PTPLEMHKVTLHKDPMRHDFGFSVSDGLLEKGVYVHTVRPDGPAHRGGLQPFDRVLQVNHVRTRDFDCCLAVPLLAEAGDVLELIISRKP
Chain of LNX1_2, Q8TBB1 (Q8TBB1 371-470): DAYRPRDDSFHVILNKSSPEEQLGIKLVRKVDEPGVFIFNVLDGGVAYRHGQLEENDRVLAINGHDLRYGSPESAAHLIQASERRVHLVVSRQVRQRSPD
Chain of GRASP, Q7Z6J2 (Q7Z6J2 96-193): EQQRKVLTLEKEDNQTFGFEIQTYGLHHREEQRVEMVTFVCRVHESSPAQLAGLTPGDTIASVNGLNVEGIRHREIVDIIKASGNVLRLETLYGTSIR
Chain of FRMPD3, Q5JV73 (Q5JV73 12-100): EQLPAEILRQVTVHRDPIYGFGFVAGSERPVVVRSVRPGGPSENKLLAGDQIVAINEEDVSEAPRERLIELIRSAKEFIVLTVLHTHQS
Chain of LIMK2, P53671 (P53671 143-248): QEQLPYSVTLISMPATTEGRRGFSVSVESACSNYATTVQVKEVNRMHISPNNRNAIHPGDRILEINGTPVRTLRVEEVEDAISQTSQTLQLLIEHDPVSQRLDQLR
Chain of HTRA2, O43464 (O43464 355-458): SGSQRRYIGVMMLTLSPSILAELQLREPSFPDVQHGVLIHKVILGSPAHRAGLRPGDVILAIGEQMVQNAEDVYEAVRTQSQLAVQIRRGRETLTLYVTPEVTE
Chain of Inadl_9, Q8NI35 (Q8NI35 1530-1615): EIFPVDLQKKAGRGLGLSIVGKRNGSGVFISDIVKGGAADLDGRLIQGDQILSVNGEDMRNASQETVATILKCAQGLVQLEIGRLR
Chain of DLG1_2, Q12959 (Q12959 314-412): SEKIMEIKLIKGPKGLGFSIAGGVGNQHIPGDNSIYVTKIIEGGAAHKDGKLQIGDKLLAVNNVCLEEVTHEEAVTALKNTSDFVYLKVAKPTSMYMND
Chain of MAGI3_2, Q5TCQ9 (Q5TCQ9 398-503): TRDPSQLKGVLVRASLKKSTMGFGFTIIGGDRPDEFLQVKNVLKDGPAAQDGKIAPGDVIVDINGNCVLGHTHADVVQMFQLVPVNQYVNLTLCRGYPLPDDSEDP
Chain of MAGI2_6, Q86UL8 (Q86UL8 1141-1229): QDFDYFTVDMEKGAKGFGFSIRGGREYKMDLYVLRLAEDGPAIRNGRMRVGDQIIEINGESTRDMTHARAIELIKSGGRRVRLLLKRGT
Chain of AHNAK1, Q09666 (Q09666 4-100): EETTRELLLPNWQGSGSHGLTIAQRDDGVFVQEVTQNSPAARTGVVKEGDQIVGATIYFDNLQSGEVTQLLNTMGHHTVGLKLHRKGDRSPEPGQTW
Chain of DLG5_1, Q8TDM6 (Q8TDM6 617-713): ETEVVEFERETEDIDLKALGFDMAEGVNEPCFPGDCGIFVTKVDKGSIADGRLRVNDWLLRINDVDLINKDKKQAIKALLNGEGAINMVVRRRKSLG

PRISRSQSEL [CCDC134, Q9H6E4]
pKd (DLG1_2, Q12959; [1]): below the threshold | pKd (DLG2_3, Q15700; [1]): 3.63 | pKd (GRIP2_7, Q9C0E4; [1]): below the threshold | pKd (LNX1_2, Q8TBB1; [1]): below the threshold | pKd (ARHGEF11, O15085; [1]): 3.88 | pKd (GRASP, Q7Z6J2; [1]): 4.31 | pKd (LIN7A, O14910; [1]): 3.52 | pKd (LIN7C, Q9NUP9; [1]): below the threshold | pKd (APBA1_2, Q02410; [1]): below the threshold | pKd (DLG3_1, Q92796; [1]): below the threshold | pKd (SNTG2, Q9NY99; [1]): below the threshold | pKd (HTRA2, O43464; [1]): below the threshold | pKd (LNX1_1, Q8TBB1; [1]): 3.67 | pKd (LIMK2, P53671; [1]): below the threshold | pKd (Inadl_9, Q8NI35; [1]): below the threshold | pKd (PCLO, Q9Y6V0; [1]): below the threshold | pKd (MAGI2_6, Q86UL8; [1]): below the threshold | pKd (APBA2_1, Q99767; [1]): below the threshold | pKd (RAPGEF6, Q8TEU7; [1]): below the threshold | pKd (FRMPD3, Q5JV73; [1]): below the threshold | pKd (TX1BP3, O14907; [1]): 3.52 | pKd (MAGI3_2, Q5TCQ9; [1]): 4.25 | pKd (FRMPD2_3, Q68DX3; [1]): below the threshold | pKd (AHNAK1, Q09666; [1]): below the threshold | pKd (DLG5_1, Q8TDM6; [1]): below the threshold | pKd (PARD3B_1, Q8TEW8; [1]): below the threshold | pKd (Inadl_10, Q8NI35; [1]): below the threshold

QPCFNKLFPL [LPXN, O60711]
pKd (DLG1_2, Q12959; [1]): below the threshold | pKd (DLG2_3, Q15700; [1]): below the threshold | pKd (GRIP2_7, Q9C0E4; [1]): 3.69 | pKd (LNX1_2, Q8TBB1; [1]): below the threshold | pKd (ARHGEF11, O15085; [1]): below the threshold | pKd (GRASP, Q7Z6J2; [1]): below the threshold | pKd (LIN7A, O14910; [1]): below the threshold | pKd (LIN7C, Q9NUP9; [1]): below the threshold | pKd (APBA1_2, Q02410; [1]): 3.63 | pKd (DLG3_1, Q92796; [1]): below the threshold | pKd (SNTG2, Q9NY99; [1]): below the threshold | pKd (HTRA2, O43464; [1]): 4.1 | pKd (LNX1_1, Q8TBB1; [1]): below the threshold | pKd (LIMK2, P53671; [1]): below the threshold | pKd (Inadl_9, Q8NI35; [1]): below the threshold | pKd (PCLO, Q9Y6V0; [1]): below the threshold | pKd (MAGI2_6, Q86UL8; [1]): below the threshold | pKd (APBA2_1, Q99767; [1]): below the threshold | pKd (RAPGEF6, Q8TEU7; [1]): below the threshold | pKd (FRMPD3, Q5JV73; [1]): below the threshold | pKd (TX1BP3, O14907; [1]): below the threshold | pKd (MAGI3_2, Q5TCQ9; [1]): below the threshold | pKd (FRMPD2_3, Q68DX3; [1]): below the threshold | pKd (AHNAK1, Q09666; [1]): below the threshold | pKd (DLG5_1, Q8TDM6; [1]): below the threshold | pKd (PARD3B_1, Q8TEW8; [1]): 3.75 | pKd (Inadl_10, Q8NI35; [1]): below the threshold

RLQRRRETQV [HPV18-E6_-2P, P06463]
pKd (DLG1_2, Q12959; [2]): below the threshold | pKd (DLG2_3, Q15700; [2]): 3.88 | pKd (GRIP2_7, Q9C0E4; [2]): below the threshold | pKd (LNX1_2, Q8TBB1; [2]): below the threshold | pKd (ARHGEF11, O15085; [2]): below the threshold | pKd (GRASP, Q7Z6J2; [2]): below the threshold | pKd (LIN7A, O14910; [2]): below the threshold | pKd (LIN7C, Q9NUP9; [2]): 4.07 | pKd (APBA1_2, Q02410; [2]): below the threshold | pKd (DLG3_1, Q92796; [2]): below the threshold | pKd (SNTG2, Q9NY99; [2]): below the threshold | pKd (HTRA2, O43464; [2]): below the threshold | pKd (LNX1_1, Q8TBB1; [2]): below the threshold | pKd (LIMK2, P53671; [2]): below the threshold | pKd (Inadl_9, Q8NI35; [2]): below the threshold | pKd (PCLO, Q9Y6V0; [2]): below the threshold | pKd (MAGI2_6, Q86UL8; [2]): below the threshold | pKd (APBA2_1, Q99767; [2]): below the threshold | pKd (RAPGEF6, Q8TEU7; [2]): below the threshold | pKd (FRMPD3, Q5JV73; [2]): below the threshold | pKd (TX1BP3, O14907; [2]): below the threshold | pKd (MAGI3_2, Q5TCQ9; [2]): below the threshold | pKd (FRMPD2_3, Q68DX3; [2]): below the threshold | pKd (AHNAK1, Q09666; [2]): below the threshold | pKd (DLG5_1, Q8TDM6; [2]): below the threshold | pKd (PARD3B_1, Q8TEW8; [2]): below the threshold | pKd (Inadl_10, Q8NI35; [2]): below the threshold
